Test results from the domain aggregation screens of Martell et al. (2025).

Test: soluble fraction after stress (log2 fold change); higher = more stays soluble; pooled small domains, quantitative proteomics
Conditions: stress: 50 degC
How it was run: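 Pooled custom libraries of small protein domains were each held under stress at 50°C. The read-out, high-throughput quantitative proteomics, tracked how much of each protein stayed soluble. This is reported as a base-two log fold change used to indicate aggregation propensity. Higher values mean more protein remains in solution.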

In order of rising “soluble fraction (log2)” value:
1. HMTIELAEGQHFLQISKSGAPMGNVVRDLIIQTLKITNGNQIKAAKILGISRAKLRYRIEQLGINITGKNI  -2.67
2. HMTNKQEYAYQWLKSSIIENKIKPSTLLVERHLSEMLHISRTPVRTALMRLADEGFVVISPGRGMVVA  -2.03
3. HMPHITDAEWEVMRVVWANHHVTSKEVISILEDKMNWKATTIKTLLGRLVEKGALSTEQDGKKFIYTAR  -1.5
4. HMSRMLTVKQREVFDLAMREGYWETPRRITLTMLASLLSVSKSTLSVQLHKIEGTVLSSFSDEVRRRS  -1.49
5. HMNSSLFLARQVHALRKKAGLTLQQLSRKSDVSVSTLSKIEKGQLSPTYEKIVSLARGLDVPIAALFHE  -0.976
6. HMLTDMSKIRKVLKLYGKGNSKLFISTYLSLSRNTVKKYISLFEVSGKTIEEILAKSDSELELLFSG  -0.919
7. HMLPDGEAFVKVNTSLNIRTGPWGQIVGWFHNNDKVKIIGRDGDWYKISHNGQTRYIHSRYVSSSR  -0.913
8. HMDLMKKTLTKEMLLIDFMKQQFPDSSTNKLRKMLSSGRVKINNLITHKAKSQLKLGDIFELANKPHD  -0.826
9. HMDPEQLKIAINTKMPFGKYSGRPLLLLPEPYLVWFKQQGFPDSKLGSQLAMMYEVKLNGLEQMLMPLL  -0.673
10. HMVYNQYILTQSVRLREEPGISGRVIRLLETGTTVELVDTVVVNKDDYDWVWVKLSDGAVGWIIKSAIDI  -0.529
11. HMSSIYVYPNPTANRIYIQADNIKKAELFDLMGRKVRSTNQPQIDISRLSRGNYILQVKTQNNTQSFKIIK  -0.476
12. HMIKLSTNENTALRLVMERGLVTESELKGLFDNPVAVMESLISKMIETNTHWIHSERSENGEWVYAWQ  -0.456
13. HMIKNDIGKFIKLYRETHQWSQRELAEHLGVSQRNVSYYEKGERIPPADVLKKLSTLFDVPVDVLLGLK  -0.43
14. HMNDLKEDTITVQSVEYIDSDDGTMVYIKDTNHQVYKQAFKEDESLIRISAGDVLHVKYQPMDNEIHLL  -0.364
15. HMLGSGSKEQQLVILNNILERQVQAFNLQGGQEYPMVTLKNFYNTLSKMIENAGLKNVENYFVNPDVGKQM  -0.302
16. HMGLNEGLNEGQQKVIQHIQENEGIKVKEISLKLNMPIDTVDRHIRVLKNLNLIERRGSRKTGGYFISN  -0.266
17. HMAVSGRGSIIGGVATVLDDFADSGKVWLEGEAWQARSSVPLKQDQEVVVRAMDGLVLVVEPVA  -0.198
18. HMNVDLLEARIPIQSHGMRLDQVVAELFPDYSRNRLAAWIKEGRLTVDGKTMKPRDRALASAHVVLEVV  -0.18
19. HMNMEYQKAINHIVQMVKDGQLIVGSKIPSERDLSESLGIGRNSTREAISILRGMGLVESRHGSGNYIAKD  -0.148
20. HMSSVGELEVGNIFEGTVNSVRGGKVLLALGNGQMVLAQMDGRVNITPGSSMFFQVKSNDGETVAIRPYTG  -0.133
21. HMVELNDNEKIVYDILKETEKIHIDELTAKVQLTQSILSGALVQMEMKGMIVSLPGKMYKLL  -0.132
22. HMHREITGSLAERNGRYTAILNLYDEDGKRRQKSIALGIPVKGNKRKAQAQLEELKRAYSLGLPQ  -0.115
23. HMTYADTRDLLIRRGMELLTEQGIAATSIERVLQSTGIPKGSFYHYFATKHDFTLAVMDAYHHY  -0.0315
24. HMLPDSQLMKEATAWFMRQAADDFSGAERRRLDAWRAQSPAHARAYHQVQALWNAPELQQAAAR  -0.0227
25. HMTEDELLAQFEEILDGYVGKPGGLIPALQTAQKLFGYLPKRVLQLISMKLDIPYSEVTGVVSFYSFFTTV  -0.0145
26. HMIVSEYIIIGGDKKEYGPVSMGEVGEWVQGGRANGDSKIKKVGTEEWGRLRDFPEFSAYLS  -0.00369
27. HMLDPKVFVGKAGINEGIAKLLLQAFDKADLVKVRFTAERDVMETQMQELARLTGSEVIGNVGRTATF  -0.00291
28. HMTGIESVKPSSDFTVEGNRIVAGDAEVEVYDLAGRKVNNNNLTTGVYIAKIAGSAESVKVFV  0.0109
29. HMESKKKTYTVKSGDTLVSILKREGVPQELIFKDYLGLFLELNPQISDINKLRVGQEIVLPVPG  0.0119
30. HMNRPYVELFSGLGQEEAQQIVQKLQEDEVDYKFSGDSTILVKEDVVDQTKATLVQEGYPKS  0.0181
31. HMDGVTEYTVKSGDSFSAIINKHYNVNYDEKLMQAVAAYNNIEDMNKLQLGQIIKLPPKEQLNL  0.0199
32. HMEETLRALAKKISEKVLKSGRSTTLEPMNPYERRIIHSAVSEIEGVSSKSVGEEPYRKVVISSDNP  0.0364
33. HMRSPLYVQIKQHILGDIRKGVWKPGEKLPTELDLAERFGVSVGTVRRAMGGLEDEGIISRREGSGTFVRT  0.0686
34. HMTKTEFLEALRRALNGNMAAASVEDNLKFYENYFYSEEAKGRSEAAVLSELGDPRILARTLIDAAER  0.0765
35. HMDEPSITYGKVKVQTSLNVRQGPGTQYARIGSLGPNVRIQILGQEGQWYKIKYGNLQGYVHSDYVELEK  0.0784
36. HMTGIQLNDRERAILQHLSDGLTTKAIAERIFLREDTVKWYRKNLLARFEQPIVAALVKWAVLEGLV  0.141
37. HMSRLLRTDAHLQYAAERGLPVTASAYTPVFAGAKQYTGRIESFDAQTIRFADGPAVERKAVARLEAE  0.159
38. HMEKIIGQIQINQRGNGYVIVPNVKDDIFVKRENLNSARQGDRVAVQLLSRPNQKPEGLVQEVLERGQ  0.461
